Target: TNF-α
Assay: cell-based or functional assay

Substance | EC50, L929 cytotoxicity assay (protection of L929 cells from TNF-α) | also measured
mouse TNFR2 Δ7 with His-tag, from clone 1144-4 transfected HeLa cells (receptor) |  | EC50, L929 cytotoxicity assay; extracellular media from 1144-4 transfected HeLa cells: 2.4 ng/mL
Etanercept (Fc fusion) | 1.1 ng/mL | 
mouse TNFR2 Δ7 without His-tag, from clone 1145-3 transfected HeLa cells (from UniProt P25119 23-474) (receptor) |  | EC50, L929 cytotoxicity assay; extracellular media from 1145-3 transfected HeLa cells: 2.4 ng/mL
Recombinant soluble TNFR2 (rsTNFR2) (from UniProt P25119 23-258) (receptor) | 698 ng/mL | 

Source: patent US20190359986A1
